Measurements as given in patent publication US20160207996A1 (ARGEN X N V, published 2016).
Positions count from the first letter of the chain named.

T1: hNav1.5-B1-C1-D1-llFc (human)
T1 construct: also called Nav1.5 extracellular loop B1-C1-D1 llamaFc chimera
T1 chain: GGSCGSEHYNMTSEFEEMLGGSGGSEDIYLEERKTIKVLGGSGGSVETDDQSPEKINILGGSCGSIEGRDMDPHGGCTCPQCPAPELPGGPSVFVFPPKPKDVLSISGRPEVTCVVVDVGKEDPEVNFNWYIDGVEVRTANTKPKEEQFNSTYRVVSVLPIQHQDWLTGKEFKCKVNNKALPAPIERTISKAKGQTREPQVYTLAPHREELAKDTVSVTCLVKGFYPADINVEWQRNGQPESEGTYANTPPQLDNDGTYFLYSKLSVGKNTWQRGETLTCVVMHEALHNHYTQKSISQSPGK

T2: RatB1-C1-D1-llFc (rat)
T2 construct: also called rat Nav1.7 loopB1-C1-D1 llamaFc chimera
T2 chain: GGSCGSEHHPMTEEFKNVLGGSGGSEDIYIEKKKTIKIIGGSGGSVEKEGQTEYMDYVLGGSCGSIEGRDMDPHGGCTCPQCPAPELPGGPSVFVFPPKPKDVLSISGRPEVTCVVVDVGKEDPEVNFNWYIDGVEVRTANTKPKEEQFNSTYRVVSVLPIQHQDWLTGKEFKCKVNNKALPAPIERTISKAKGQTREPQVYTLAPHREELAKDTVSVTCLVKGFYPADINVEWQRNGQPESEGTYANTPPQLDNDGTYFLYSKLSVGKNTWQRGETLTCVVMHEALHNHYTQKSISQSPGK

T3: hNav1.7-loopC3-llama Fc (human)
T3 construct: whole entry: loop C3, linker, llama Fc; also called hNav1.7-loopC3-llfc
T3 chain: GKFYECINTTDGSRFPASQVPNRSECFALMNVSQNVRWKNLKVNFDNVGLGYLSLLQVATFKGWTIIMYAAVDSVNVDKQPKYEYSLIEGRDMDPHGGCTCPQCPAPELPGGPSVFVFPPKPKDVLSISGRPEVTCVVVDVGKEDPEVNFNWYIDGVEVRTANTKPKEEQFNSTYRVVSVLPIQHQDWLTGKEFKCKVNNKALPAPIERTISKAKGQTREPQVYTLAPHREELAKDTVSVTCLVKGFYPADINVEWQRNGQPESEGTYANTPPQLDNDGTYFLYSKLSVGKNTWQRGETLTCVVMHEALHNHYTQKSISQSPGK

T4: hNav1.7-loopA3-llama Fc fusion (human)
T4 construct: also called hNav1.7-loopA3-llFc; loopA3-llamaFc chimera
T4 chain: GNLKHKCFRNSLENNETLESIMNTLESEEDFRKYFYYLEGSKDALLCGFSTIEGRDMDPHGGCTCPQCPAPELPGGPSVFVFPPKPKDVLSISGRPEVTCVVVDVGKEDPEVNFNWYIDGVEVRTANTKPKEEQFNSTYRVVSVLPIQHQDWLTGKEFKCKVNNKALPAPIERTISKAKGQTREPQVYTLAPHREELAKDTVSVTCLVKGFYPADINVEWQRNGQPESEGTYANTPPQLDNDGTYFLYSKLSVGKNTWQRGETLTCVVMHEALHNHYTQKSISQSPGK

T5: hNav1.7-loopB1-C1-D1-llama Fc (human)
T5 construct: whole entry: loops B1, C1, D1 joined by linkers, llama Fc; also called hNav1.7-loopB1-C1-D1-llfc
T5 chain: T2 chain with K32R, T52S, E53Q, Y54H, D56T, Y57E

T6: hNav1.5-loopA3-llFc (human)
T6 construct: also called Nav1.5 extracellular loop A3 llamaFc chimera
T6 chain: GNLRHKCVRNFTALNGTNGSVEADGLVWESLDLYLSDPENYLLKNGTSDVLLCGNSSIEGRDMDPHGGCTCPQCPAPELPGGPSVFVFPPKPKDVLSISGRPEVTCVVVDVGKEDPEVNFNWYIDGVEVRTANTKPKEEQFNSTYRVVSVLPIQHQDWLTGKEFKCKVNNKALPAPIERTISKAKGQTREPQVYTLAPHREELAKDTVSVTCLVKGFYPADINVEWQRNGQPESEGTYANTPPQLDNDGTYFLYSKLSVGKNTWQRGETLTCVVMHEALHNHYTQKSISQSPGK

T7: ratA3-llFc (rat)
T7 construct: also called rat Nav1.7 loopA3 llamaFc chimera
T7 chain: T4 chain with N10K, S11E, N14E, L25A, D30E, F31L, R32K

B1: 9H4 (antibody, human IgG1, V domains shown)
VH: EVQLVQPGAELRNPGASVKVSCKASGYIFTSAYIDWVRQAPGQGLEWMGRIDPEDGETRYAHQFRDRVTFTADTSTSTVYAELNSLRSEDTAVYYCAITIEGFWGQGTQVTVSS
VL: ATMLTQSPGSLSVVPGESASISCKTSRSLVHSDGKTYLSWLLQKPGQSPQRLIYQVSNRGSGVPDRFTGSGSGTDFTLKISGVKAEDAGVYYCAQATYYPLSFGSGTRVEIK
B2: 8B6 (antibody, human IgG1, V domains shown)
VH: EVQLQESGPGLVKPSQTLSLTCTVSGGSISTSGTGWSWIRQPPGKGLEWMGIIGYDGGTYYNPSLKSRTSISRDTSKNQFSLQLTSVTPEDTAVYYCARGLGPWGQGIQVTVSS
VL: DIQMTQSPSSLSASLGDRVTITCQASQGISKYLAWYQQKPGQAPKLLIYSASRLETGVPSRFSGSGSGTTFTLVISGLEAEDAGSYYCQQYYRAPATFGQGTKVELK

What was measured:
[1] = target: human Nav1.7 (full length) (human) (UniProt Q15858); test: cell-based or functional assay
hNav1.5-B1-C1-D1-llFc = target: T1, hNav1.5-B1-C1-D1-llFc; test: binding ELISA; the panel prints no target, by paragraph 288 and paragraph 555 the coated hNav1.5 loop B1-C1-D1-llama Fc
Text: (§1) The therapeutic potency of an anti-hNav1.7 antibody will highly depend on the lack of binding to other Nay family members. Of particular interest is hNav1.5, which is expressed on cardiac muscle cells. As such, cross-reactive binding of hNav1.7 antibodies to hNav1.5 could lead to heart failure. To assay the specificity of the mAbs derived from DNA immunization for hNav1.7, the corresponding loopA3 and loopB1-C1-D1 sequences of hNav1.5 were cloned as llamaFc chimera and cross-reactivity was determined using a binding ELISA (FIG. 8). All clones, except clone 9A6 and 9H4, show no cross-reactivity to hNav1.5. In addition, cross reactivity for hNav1.2 was tested for the loopA3-binding clones 8A7 and 8B6 using hNav1.2 and hNav1.7 derived monomeric, GST-tagged loopA3 peptides (Abnova, H00006326-Q01 (hNav1.2) and H00006335-Q01 (hNav1.7)). Again, no cross-reactive binding was observed.

RatB1-C1-D1-llFc = target: T2, RatB1-C1-D1-llFc; test: binding ELISA; the panel prints no target, by paragraph 562 the coated rat loop B1-C1-D1-llama Fc
hNav1.7-loopC3-llama Fc = target: T3, hNav1.7-loopC3-llama Fc; test: binding ELISA on coated loop-llama Fc chimera (20 ng/well), OD620
Procedure: (§2) For all DNA-immunization derived mAbs the binding affinity for the various hNav1.7-loop-llama Fc chimeras was tested in a binding ELISA. Therefore, a Maxisorp plate (Nunc) was coated with 20 ng/well of hNav1.7-loopA3-llama Fc, hNav1.7-loopB1-C1-D1-llama Fc or hNav1.7-loopC3-llama Fc. Remainder of the ELISA setup is as described above. […] Only at very high concentration minor cross-reactivity is observed for some clones.

[2] = target: T4, hNav1.7-loopA3-llama Fc fusion; test: as above
Procedure: as §2

[3] = target: T5, hNav1.7-loopB1-C1-D1-llama Fc; test: ELISA, coated loop-B1-C1-D1-llama Fc 20 ng/well, mAb titrated
Procedure: mAbs originating from the loopA3-llama Fc immunization were assayed for their affinity for hNav1.7-loopA3. Therefore, a Maxisorp plate was coated with 10 ng/well of loopA3-llamaFc chimera and incubated overnight at 4° C. The next day, the plate was blocked with PBS+1% casein for 2 hours at RT. Subsequently a concentration gradient of antibodies was applied (range 0.25 pM-66 nM) for another hour. Antibody binding to loopA3 was detected using a HRP-conjugated anti-human Fc antibody (Abcam, Ab7499) (incubation 1 hour at RT, dilution 1/5000 in PBS+0.1% casein), followed by TMB addition and OD620 nm measurement. EC50 values were determined using GraphPad Prism software. For comparison purposes a known hNav1.7-loopA3 binding monoclonal antibody, UCB_932 (US2011/0135662), was tested.
(§3) In a next experiment, the binding affinity of the loop-specific mAbs was determined and compared to reference mAbs as described in US2011/0135662 (for loop A3: UCB_932, for loopB1-C1-D1: UCB_983, for loopC3: UCB_1066; US2011/0135662). Affinities were determined using an ELISA with a loop-coating of 10 ng/well (loopA3-llama Fc), 20 ng/well (loop-B1-C1-D1-llama Fc) or 50 ng/well (loopC3-llama Fc). The remainder of the experimental setup was identical to abovementioned binding ELISAs. Most of the mAbs show pM affinity for the respective hNav1.7 extracellular loop they are binding. […] The EC₅₀ for the reference mAbs could not be determined (nd) from the ELISA data available because the binding was too weak.

[4] = target: T8, GST-tagged hNav1.7-loopA3 (human, UniProt Q15858 269-339); test: binding ELISA on coated GST-tagged hNav1.7 loop A3 peptide, OD620
T8 construct: monomeric GST-tagged peptide; also called hNav1.7-loopA3-GST; Nav1.7-loopA3-GST; not shown: GST tag
Text: as §1

hNav1.5-loopA3-llFc = target: T6, hNav1.5-loopA3-llFc; test: binding ELISA on coated hNav1.5 loop A3-llama Fc, OD620
Text: as §1

[5] = target: T4, hNav1.7-loopA3-llama Fc fusion; test: ELISA, coated loopA3-llama Fc 10 ng/well, mAb titrated
Procedure: as §3

[6] = target: T9, GST-tagged hNav1.2-loopA3 (human, UniProt Q99250 273-362); test: binding ELISA on coated GST-tagged hNav1.2 loop A3 peptide, OD620
T9 construct: bought (Abnova); monomeric; also called hNav1.2 derived monomeric GST-tagged loopA3 peptide; Abnova H00006326-Q01; not shown: GST tag
T9 sequence (Q99250 273-362 limits assumed): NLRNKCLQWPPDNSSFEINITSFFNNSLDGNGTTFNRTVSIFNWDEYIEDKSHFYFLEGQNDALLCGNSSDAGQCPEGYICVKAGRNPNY
Text: as §1

ratA3-llFc = target: T7, ratA3-llFc; test: binding ELISA on coated rat Nav1.7 loop A3-llama Fc, OD620
[7] = target: T5, hNav1.7-loopB1-C1-D1-llama Fc; test: binding ELISA on coated loop-llama Fc chimera (20 ng/well), OD620
Procedure: as §2

Row | Binder | % inhibition of inward current following P02 voltage protocol, 10 µg/ml [1] [%] | % inhibition of inward current following P02 voltage protocol, 25 µg/ml [1] [%] | % inhibition of inward current following P02 voltage protocol, 100 µg/ml [1] [%] | binding result (hNav1.5-B1-C1-D1-llFc) | binding result (RatB1-C1-D1-llFc) | binding result (hNav1.7-loopC3-llama Fc) | binding result [2] | EC50 [3] [nM] | EC50 (read off the curve) [4] [nM] | binding result (hNav1.5-loopA3-llFc) | EC50 [5] [nM] | binding result [6] | EC50 (read off the curve) (ratA3-llFc) [nM] | binding result [7]
1 | B1 | 3.8 | 19.8 | 23.9 | binds | binds | binds | binds | 0.19 | – | – | – | – | – | –
2 | B2 | 30.2 | 58.4 | 72.2 | – | – | – | – | – | ~0.5 | no binding (tested: about 66 ng/ml (axis as labelled)) | 0.37 | no binding (tested: about 130 nM) | ~0.6 | no binding (tested: about 66 nM)
